The results in this text go back to article PMC7279355 (International Journal of Molecular Sciences, 2020).

Ends that are not written are not given here.

T1 sequence (Q9NZQ7 19-238): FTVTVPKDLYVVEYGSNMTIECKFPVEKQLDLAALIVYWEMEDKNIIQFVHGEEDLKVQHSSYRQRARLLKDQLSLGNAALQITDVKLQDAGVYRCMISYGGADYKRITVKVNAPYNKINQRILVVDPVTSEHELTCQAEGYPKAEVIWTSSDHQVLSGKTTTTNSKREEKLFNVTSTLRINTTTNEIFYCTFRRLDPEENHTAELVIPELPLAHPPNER

The experiment has as its target T1, PD-L1, histidine (His)-tagged (UniProt Q9NZQ7 19-238).
T1 construct: PD-L1 (programmed cell death-ligand 1) of the AlphaLISA PD-1/PD-L1 kit; Held on anti-His-conjugated acceptor beads; also called His-tagged PD-L1; programmed cell death-ligand 1; source: bought: PerkinElmer AlphaLISA assay kit (AL356 HV/C/F)
The experiment in a line: AlphaScreen or HTRF; AlphaLISA kit AL356 HV/C/F (PerkinElmer), competition: biotin-conjugated PD-1 on streptavidin-coated donor beads, His-tagged PD-L1 on anti-His acceptor beads; 2 uL each of inhibitor dilution, PD-L1 (25 nM), PD-1 (25 nM) and the two beads in 10 uL; 25 °C, 90 min; IC50 from sigmoidal fit. The settings on record: both partners purified.
YNL (not fully specified; X (position 1) = biphenyl-conjugated bromotyrosine) [XNL]: the concentration for half-maximal inhibition (IC50) (usually the concentration that inhibits the measured activity by half) amounted to 855 µM. Take YNH (not fully specified; X (position 1) = biphenyl-conjugated bromotyrosine) [XNH]: the IC50 worked out at 313 µM. On to CYA (not fully specified; X (position 2) = biphenyl-conjugated bromotyrosine) [CXA], for which the IC50 is 665 µM.

With YHP (not fully specified; X (position 1) = biphenyl-conjugated bromotyrosine) [XHP], the IC50 amounted to 359 µM. Then Tyr-Tyr-Cys (not fully specified (residue 2)) [YXC], with 465 µM; and YGGGG (not fully specified; X (position 1) = biphenyl-conjugated bromotyrosine) [XGGGG], with 648 µM. Next, CYR (not fully specified; X (position 2) = biphenyl-conjugated bromotyrosine) [CXR]: 550 µM; WRYNN (not fully specified; X (position 3) = biphenyl-conjugated bromotyrosine) [WRXNN]: 157 µM. Regarding YGG (not fully specified; X (position 1) = biphenyl-conjugated bromotyrosine) [XGG], the IC50 came to 6500 µM. Regarding YCSE (not fully specified; X (position 1) = biphenyl-conjugated bromotyrosine) [XCSE], the IC50 amounted to 1560 µM. Then QYQ (not fully specified; X (position 2) = biphenyl-conjugated bromotyrosine) [QXQ], with 1960 µM; and YRRRR (not fully specified; X (position 1) = biphenyl-conjugated bromotyrosine) [XRRRR], with 436 µM. ERYNK (not fully specified; X (position 3) = biphenyl-conjugated bromotyrosine) [ERXNK] showed an IC50 of 15.6 µM.

YGGGGG (not fully specified; X (position 1) = biphenyl-conjugated bromotyrosine) [XGGGGG]: the concentration for half-maximal inhibition (IC50) is 846 µM. Then SYR (not fully specified; X (position 2) = biphenyl-conjugated bromotyrosine) [SXR], with 796 µM; and YGGG (not fully specified; X (position 1) = biphenyl-conjugated bromotyrosine) [XGGG], with 6770 µM. WRYNQ (not fully specified; X (position 3) = biphenyl-conjugated bromotyrosine) [WRXNQ] displayed an IC50 of 163 µM. Next, GYG (not fully specified; X (position 2) = biphenyl-conjugated bromotyrosine) [GXG]: 676 µM; WYG (not fully specified; X (position 2) = biphenyl-conjugated bromotyrosine) [WXG]: 405 µM.

Regarding NYR (not fully specified; X (position 2) = biphenyl-conjugated bromotyrosine) [NXR], the IC50 worked out at 982 µM. Then RYN (not fully specified; X (position 2) = biphenyl-conjugated bromotyrosine) [RXN], with 405 µM.
